B1: LMNA (protein)
chain: METPSQRRATRSGAQASSTPLSPTRITRLQEKEDLQELNDRLAVYIDRVRSLETENAGLRLRITESEEVVSREVSGIKAAYEAELGDARKTLDSVAKERARLQLELSKVREEFKELKARNTKKEGDLIAAQARLKDLEALLNSKEAALSTALSEKRTLEGELHDLRGQVAKLEAALGEAKKQLQDEMLRRVDAENRLQTMKEELDFQKNIYSEELRETKRRHETRLVEIDNGKQREFESRLADALQELRAQHEDQVEQYKKELEKTYSAKLDNARQSAERNSNLVGAAHEELQQSRIRIDSLSAQLSQLQKQLAAKEAKLRDLEDSLARERDTSRRLLAEKEREMAEMRARMQQQLDEYQELLDIKLALDMEIHAYRKLLEGEEERLRLSPSPTSQRSRGRASSHSSQTQGGGSVTKKRKLESTESRSSFSQHARTSGRVAVEEVDEEGKFVRLRNKSNEDQSMGNWQIKRQNGDDPLLTYRFPPKFTLKAGQVVTIWAAGAGATHSPPTDLVWKAQNTWGCGNSLRTALINSTGEEVAMRKLVRSVTVVEDDEDEDGDDLLHHHHGSHCSSSGDPAEYNLRSRTVLCGTCGQPADKASASGSGAQVGGPISSGSSASSVTVTRSYRSVGGSGGGSFGDNLVTRSY
B2: CAVIN1 (protein)
chain: MEDPTLYIVERPLPGYPDAEAPEPSSAGAQAAEEPSGAGSEELIKSDQVNGVLVLSLLDKIIGAVDQIQLTQAQLEERQAEMEGAVQSIQGELSKLGKAHATTSNTVSKLLEKVRKVSVNVKTVRGSLERQAGQIKKLEVNEAELLRRRNFKVMIYQDEVKLPAKLSISKSLKESEALPEKEGEELGEGERPEEDAAALELSSDEAVEVEEVIEESRAERIKRSGLRRVDDFKKAFSKEKMEKTKVRTRENLEKTRLKTKENLEKTRHTLEKRMNKLGTRLVPAERREKLKTSRDKLRKSFTPDHVVYARSKTAVYKVPPFTFHVKKIREGQVEVLKATEMVEVGADDDEGGAERGEAGDLRRGSSPDVHALLEITEESDAVLVDKSDSD
B3: ACTN1 (protein)
chain: MDHYDSQQTNDYMQPEEDWDRDLLLDPAWEKQQRKTFTAWCNSHLRKAGTQIENIEEDFRDGLKLMLLLEVISGERLAKPERGKMRVHKISNVNKALDFIASKGVKLVSIGAEEIVDGNVKMTLGMIWTIILRFAIQDISVEETSAKEGLLLWCQRKTAPYKNVNIQNFHISWKDGLGFCALIHRHRPELIDYGKLRKDDPLTNLNTAFDVAEKYLDIPKMLDAEDIVGTARPDEKAIMTYVSSFYHAFSGAQKAETAANRICKVLAVNQENEQLMEDYEKLASDLLEWIRRTIPWLENRVPENTMHAMQQKLEDFRDYRRLHKPPKVQEKCQLEINFNTLQTKLRLSNRPAFMPSEGRMVSDINNAWGCLEQVEKGYEEWLLNEIRRLERLDHLAEKFRQKASIHEAWTDGKEAMLRQKDYETATLSEIKALLKKHEAFESDLAAHQDRVEQIAAIAQELNELDYYDSPSVNARCQKICDQWDNLGALTQKRREALERTEKLLETIDQLYLEYAKRAAPFNNWMEGAMEDLQDTFIVHTIEEIQGLTTAHEQFKATLPDADKERLAILGIHNEVSKIVQTYHVNMAGTNPYTTITPQEINGKWDHVRQLVPRRDQALTEEHARQQHNERLRKQFGAQANVIGPWIQTKMEEIGRISIEMHGTLEDQLSHLRQYEKSIVNYKPKIDQLEGDHQLIQEALIFDNKHTNYTMEHIRVGWEQLLTTIARTINEVENQILTRDAKGISQEQMNEFRASFNHFDRDHSGTLGPEEFKACLISLGYDIGNDPQGEAEFARIMSIVDPNRLGVVTFQAFIDFMSRETADTDTADQVMASFKILAGDKNYITMDELRRELPPDQAEYCIARMAPYTGPDSVPGALDYMSFSTALYGESDL
B4: CFL1 (protein)
chain: MVSPGHGHLRERKELTPHSTNPAAARIWDATYSDGYVRPASGVAVSDGVIKVFNDMKVRKSSTPEEVKKRKKAVLFCLSEDKKNIILEEGKEILVGDVGQTVDDPYATFVKMLPDKDCRYALYDATYETKESKKEDLVFIFWAPESAPLKSKMIYASSKDAIKKKLTGIKHELQANCYEEVKDRCTLAEKLGGSAVISLEGKPL
B5: TUBB (protein)
chain: MREIVHIQAGQCGNQIGAKFWEVISDEHGIDPTGTYHGDSDLQLDRISVYYNEATGGKYVPRAILVDLEPGTMDSVRSGPFGQIFRPDNFVFGQSGAGNNWAKGHYTEGAELVDSVLDVVRKEAESCDCLQGFQLTHSLGGGTGSGMGTLLISKIREEYPDRIMNTFSVVPSPKVSDTVVEPYNATLSVHQLVENTDETYCIDNEALYDICFRTLKLTTPTYGDLNHLVSATMSGVTTCLRFPGQLNADLRKLAVNMVPFPRLHFFMPGFAPLTSRGSQQYRALTVPELTQQVFDAKNMMAACDPRHGRYLTVAAVFRGRMSMKEVDEQMLNVQNKNSSYFVEWIPNNVKTAVCDIPPRGLKMAVTFIGNSTAIQELFKRISEQFTAMFRRKAFLHWYTGEGMDEMEFTEAESNMNDLVSEYQQYQDATAEEEEDFGEEAEEEA
B6: TUBB6 (protein)
chain: MREIVHIQAGQCGNQIGTKFWEVISDEHGIDPAGGYVGDSALQLERINVYYNESSSQKYVPRAALVDLEPGTMDSVRSGPFGQLFRPDNFIFGQTGAGNNWAKGHYTEGAELVDAVLDVVRKECEHCDCLQGFQLTHSLGGGTGSGMGTLLISKIREEFPDRIMNTFSVMPSPKVSDTVVEPYNATLSVHQLVENTDETYCIDNEALYDICFRTLKLTTPTYGDLNHLVSATMSGVTTSLRFPGQLNADLRKLAVNMVPFPRLHFFMPGFAPLTSRGSQQYRALTVPELTQQMFDARNMMAACDPRHGRYLTVATVFRGPMSMKEVDEQMLAIQSKNSSYFVEWIPNNVKVAVCDIPPRGLKMASTFIGNSTAIQELFKRISEQFSAMFRRKAFLHWFTGEGMDEMEFTEAESNMNDLVSEYQQYQDATANDGEEAFEDEEEEIDG
B7: DBN1 (protein)
chain: AGVSFSGHRLELLAAYEEVIREESAADWALYTYEDGSDDLKLAASGEGGLQELSGHFENQKVMYGFCSVKDSQAALPKYVLINWVGEDVPDARKCACASHVAKVAEFFQGVDVIVNASSVEDIDAGAIGQRLSNGLARLSSPVLHRLRLREDENAEPVGTTYQKTDAAVEMKRINREQFWEQAKKEEELRKEEERKKALDERLRFEQERMEQERQEQEERERRYREREQQIEEHRRKQQTLEAEEAKRRLKEQSIFGDHRDEEEETHMKKSESEVEEAAAIIAQRPDNPREFFKQQERVASASAGSCDVPSPFNHRPGSHLDSHRRMAPTPIPTRSPSDSSTASTPVAEQIERALDEVTSSQPPPLPPPPPPAQETQEPSPILDSEETRAAAPQAWAGPMEEPPQAQAPPRGPGSPAEDLMFMESAEQAVLAAPVEPATADATEIHDAADTIETDTATADTTVANNVPPAATSLIDLWPGNGEGASTLQGEPRAPTPPSGTEVTLAEVPLLDEVAPEPLLPAGEGCATLLNFDELPEPPATFCDPEEVEGESLAAPQTPTLPSALEELEQEQEPEPHLLTNGETTQKEGTQASEGYFSQSQEEEFAQSEELCAKAPPPVFYNKPPEIDITCWDADPVPEEEEGFEGGD
B8: WDR1 (protein)
chain: MPYEIKKVFASLPQVERGVSKIIGGDPKGNNFLYTNGKCVILRNIDNPALADIYTEHAHQVVVAKYAPSGFYIASGDVSGKLRIWDTTQKEHLLKYEYQPFAGKIKDIAWTEDSKRIAVVGEGREKFGAVFLWDSGSSVGEITGHNKVINSVDIKQSRPYRLATGSDDNCAAFFEGPPFKFKFTIGDHSRFVNCVRFSPDGNRFATASADGQIYIYDGKTGEKVCALGGSKAHDGGIYAISWSPDSTHLLSASGDKTSKIWDVSVNSVVSTFPMGSTVLDQQLGCLWQKDHLLSVSLSGYINYLDRNNPSKPLHVIKGHSKSIQCLTVHKNGGKSYIYSGSHDGHINYWDSETGENDSFAGKGHTNQVSRMTVDESGQLISCSMDDTVRYTSLMLRDYSGQGVVKLDVQPKCVAVGPGGYAVVVCIGQIVLLKDQRKCFSIDNPGYEPEVVAVHPGGDTVAIGGVDGNVRLYSILGTTLKDEGKLLEAKGPVTDVAYSHDGAFLAVCDASKVVTVFSVADGYSENNVFYGHHAKIVCLAWSPDNEHFASGGMDMMVYVWTLSDPETRVKIQDAHRLHHVSSLAWLDEHTLVTTSHDASVKEWTITY

system: proteins that co-immunoprecipitated with DUX4-CTD constructs expressed in MB135 myoblasts; test: LC-MS of proteins co-immunoprecipitated with DUX4-CTD (Table 1) and western validation; type: binding, human; set-up: key to 4. mL1dL2 + Dox + IFNG / 4. + IFNG mix / 4. longCTD + Dox + IFNG / 3. + IFNg + Dox longCTD / 3. + Dox longCTD / 3. + IFNG longCTD: peptide-spectrum matches (PSMs) per protein; details: LC-MS value per protein co-immunoprecipitated from MB135 myoblasts; + IFNG mix sample (no Dox); kind of count not given
Source text: As an unbiased method to identify proteins that interact with the C-terminal region of DUX4, liquid chromatography mass spectroscopy (LC-MS) was used to identify proteins that co-immunoprecipitated with DUX4-CTD constructs expressed in MB135 myoblasts. In the first experiment, MB135iDUX4-CTD cells were used, either untreated, treated with doxycycline alone, or with both doxycycline and IFNG. In the second experiment, MB135iDUX4-CTD and MB135iDUX4mL1dL2 cells were used, both treated with doxycycline and IFNG, compared to these two cell lines untreated and combined as a control. Proteins with a minimum of 2 peptide spectrum matches (PSMs) in at least one sample that were identified in both experiments were assigned to one of ten categories (see Methods) to separate candidate interactors from other categories that might be co-purified because of obligate interactions (e.g., proteasome or ribosome) or might be less likely to be physiologically relevant (e.g., cytoskeletal proteins). Candidate interactors were then ranked based on the total PSMs for that protein across all samples.
Centrifugation at 2500 rcf at 4° C. for 5 min pelleted the nuclei, supernatant was discarded, and nuclei resuspended in 1 mL IP buffer pH 7.4 (25 mM Tris-HCl pH 7.5, 175 mM NaCl, 1 mM EDTA, 0.2% NP-40, 5% glycerol) and incubated for 1 hour at 4° C. with rotation then spun at 21000 rcf for 10 minutes at 4° C. to pellet insoluble debris. Protein concentration was determined using the Pierce BCA Protein Assay Kit (ThermoFisher, 23225). An equivalent amount of protein per sample was pre-cleared with Dynabeads Protein G (Invitrogen) bound to mouse IgG (Abcam #131368) for 1 hour at 4° C. with rotation. FLAG-tagged constructs were then immunoprecipitated with Dynabeads Protein G beads coupled to mouse anti-FLAG M2 mAb (Sigma F3165) for 3 hours at 4° C. with rotation. Beads were washed 3× with 1 mL IP buffer and eluted by adding 2× NuPage LDS Sample Buffer (Thermo Fisher, diluted from 4× with PBS) to the beads and heating for 10 minutes at 70° C.
For LC-MS, anti-FLAG immunoprecipitation was performed with beads cross-linked to the anti-FLAG antibody and the proteins competitively eluted with FLAG peptide. Eluted protein samples were electrophoresed into a NuPage 4-12% Bis-Tris gel, excised, and processed by the Fred Hutchinson Cancer Research Center Proteomics Core. Samples were reduced, alkylated, digested with trypsin, desalted, and run on the Orbitrap Eclipse Tribid Mass Spectrometer (Thermo Fisher). Proteomics data were analyzed using Proteome Discoverer 2.4 against a Uniprot human database that included common contaminants using Sequest HT and Percolator for scoring. […] Proteins that were identified in at least one sample from both independent experiments with at least 2 PSMs in one sample were assigned to one of ten categories: 1, candidates; 2, cytoskeletal associated; 3, cytoskeletal; 4, ribosome/translation associated; 5, proteasome associated; 6, membrane or extracellular; ER, golgi, or vesicle associated; 8, lipid metabolism; 9, chaperones; 10, nuclear import or nuclear membrane associated. The proteins in category 1 were further investigated for interactions with DUX4.

Compared with B1, B2 is higher in “4. + IFNG mix” value: 4 for the first, 7 for the second.

Going from B3 to B4, the “4. + IFNG mix” value falls from 9 to 1.

B5 was tested, and the “4. + IFNG mix” value was 19.

same assay, conditions: LC-MS value per protein co-immunoprecipitated with DUX4-CTD construct mL1dL2 in MB135 myoblasts; + Dox + IFNG; kind of count not given

Compared with B1, B2 is higher in “4. mL1dL2 + Dox + IFNG” value: 8 for the first, 16 for the second.

Going from B3 to B4, the “4. mL1dL2 + Dox + IFNG” value falls from 22 to 4.

Compared with B6, B7 is lower in “4. mL1dL2 + Dox + IFNG” value: 23 for the first, 2 for the second.

First: B5
Second: B8
The “4. mL1dL2 + Dox + IFNG” value of the first is higher: 56 for the first, 2 for the second.

— US20250339531A1, “DUX4 POLYPEPTIDES AND NUCLEIC ACIDS FOR TREATING INFLAMMATORY AND AUTOIMMUNE CONDITIONS” (Fred Hutchinson Cancer Center, priority 2021, published 2025)
